Key:
[1] = molecular target: T1, human Sirt3 (Homo sapiens, UniProt Q9NTG7); experiment: Continuous coupled enzymatic assay, Sirt3; format: biochemical; conditions: 65 μM Tat-Cys^−, acetylated peptide at substrate Km, n = 3
T1 construct: Sirt3-(93-399) in a modified pET-32a; Trx-His6 (cleaved yes); made in house; host or cells: E. coli CodonPlus(DE3)
T1 sequence (Q9NTG7 93-399): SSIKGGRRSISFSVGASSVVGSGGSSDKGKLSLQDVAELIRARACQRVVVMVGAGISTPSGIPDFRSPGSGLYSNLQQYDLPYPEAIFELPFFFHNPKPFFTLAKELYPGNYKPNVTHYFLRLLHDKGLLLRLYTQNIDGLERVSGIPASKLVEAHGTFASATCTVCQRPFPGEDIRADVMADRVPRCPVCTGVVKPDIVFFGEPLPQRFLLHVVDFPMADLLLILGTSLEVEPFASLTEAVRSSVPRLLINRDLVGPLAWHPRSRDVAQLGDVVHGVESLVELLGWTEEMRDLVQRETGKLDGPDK
Text: (§1) A human mini-Sirt1 construct (aa 183-505-(GGGS)2-641-665), as described in [27], was generated in a modified pET-19b with a TEV cleavage site. This construct and human full-length Sirt1 (fl-Sirt1) in pET-15b, Sirt1-(183-664) and Sirt1-(214-664) in pET-15b, mini-Sirt1-∆SBD (aa 214-505-(GGGS)2-641-665) and mini-Sirt1-∆ESA (aa 183–505) in a modified pET-19b with TEV cleavage site, Sirt2-(43-356) in a modified pET-19b with a His6-Sumo tag, Sirt3-(93-399) in a modified pET-32a with Trx-His6 tag and TEV cleavage site, hSirt3-(118-399) in pVFT3S (Sungkyunkwan University, Seoul, Republic of Korea) with His6-Trx tag and TEV cleavage site, Sirt5-(34-302) in pET-151/D-TOPO, and Sirt6-(1-355) in pQE80L.1 were purified as described. […]
(§2) Continuous coupled enzymatic sirtuin activity assays were conducted as described. […] Reactions were monitored for 1 h at room temperature by absorption spectroscopy at 340 nm in a UV/vis plate reader (BioTek). The slope for the linear range (typically 5–25 min) was evaluated after background correction with measurements without NAD^+. Additional control reactions were run by either omitting enzyme or omitting peptide substrate to ensure that the signal measured reflects the NAD+-dependent deacetylation activity of the sirtuin.

[2] = molecular target: T2, human Sirt5 (Homo sapiens, UniProt Q9NXA8); experiment: Continuous coupled enzymatic assay, Sirt5; format: biochemical; conditions: 65 μM Tat-Cys^−, succinylated peptide at substrate Km, n = 3
T2 construct: Sirt5-(34-302) in pET-151/D-TOPO; made in house; host or cells: E. coli CodonPlus(DE3)
T2 sequence (Q9NXA8 34-302): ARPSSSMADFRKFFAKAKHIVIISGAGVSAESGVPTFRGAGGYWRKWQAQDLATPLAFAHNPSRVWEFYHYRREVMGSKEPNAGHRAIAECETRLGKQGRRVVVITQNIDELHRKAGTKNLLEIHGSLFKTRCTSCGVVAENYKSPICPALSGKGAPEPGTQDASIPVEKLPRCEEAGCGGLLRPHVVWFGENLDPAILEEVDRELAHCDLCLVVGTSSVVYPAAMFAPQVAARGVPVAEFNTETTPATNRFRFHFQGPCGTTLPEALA
Text: as §1, §2

B1: Tat-Cys^−: Recombinant 86-residue HIV1 Zaire 2 Tat with C22S, C25A, C27A, C30S, C31A, C34S, and C37A (protein)
chain: MDPVDPNIEPWNHPGSQPKTASNRAHAKKSAYHSQVAFITKGLGISYGRKKRRQRRRPSQGGQTHQDPIPKQPSSQPRGDPTGPKE
inhibitory effect on Sirt3, continuous assay [1]: pronounced inhibitory effects
inhibitory effect on Sirt5, continuous assay [2]: no statistically significant effect was observed

Source: publication PMC10144703, “Molecular Mechanism of Sirtuin 1 Inhibition by Human Immunodeficiency Virus 1 Tat Protein” (Life, 2023)
